Experimental data: patent US20200147230A1

Assays:
[1] = biological target: murine nucleolin (in Colon 26 / C26 murine colon carcinoma cells) (murine) (UniProt P09405); assay: fixed cell assay on fixed, permeabilised murine C26 cells; negative control
human nucleolin (human) = human nucleolin (human) (UniProt P19338); assay: fixed cell assay on fixed, permeabilised Raji cells; negative control, ambiguous fit
Sequence of UniProt P19338 (P19338 2-710 limits assumed): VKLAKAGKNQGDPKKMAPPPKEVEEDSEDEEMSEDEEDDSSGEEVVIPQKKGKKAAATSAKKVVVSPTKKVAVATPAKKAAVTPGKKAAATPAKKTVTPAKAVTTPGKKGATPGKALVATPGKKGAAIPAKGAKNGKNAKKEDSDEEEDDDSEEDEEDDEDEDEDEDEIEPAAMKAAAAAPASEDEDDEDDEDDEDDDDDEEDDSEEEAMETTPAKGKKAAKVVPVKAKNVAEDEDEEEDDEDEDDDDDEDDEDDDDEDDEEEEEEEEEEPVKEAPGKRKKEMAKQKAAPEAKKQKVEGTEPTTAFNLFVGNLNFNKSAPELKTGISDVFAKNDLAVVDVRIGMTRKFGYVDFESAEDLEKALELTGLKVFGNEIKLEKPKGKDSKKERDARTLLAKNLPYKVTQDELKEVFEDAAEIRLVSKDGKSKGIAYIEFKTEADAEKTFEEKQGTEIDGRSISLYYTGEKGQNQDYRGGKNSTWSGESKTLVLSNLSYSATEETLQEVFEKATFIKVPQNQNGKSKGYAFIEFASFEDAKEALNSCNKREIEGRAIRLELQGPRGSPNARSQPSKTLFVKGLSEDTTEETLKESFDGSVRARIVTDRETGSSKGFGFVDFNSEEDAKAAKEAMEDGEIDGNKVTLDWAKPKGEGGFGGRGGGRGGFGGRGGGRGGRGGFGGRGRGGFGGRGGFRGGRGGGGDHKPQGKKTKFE

Sequence of UniProt P09405 (P09405 2-707): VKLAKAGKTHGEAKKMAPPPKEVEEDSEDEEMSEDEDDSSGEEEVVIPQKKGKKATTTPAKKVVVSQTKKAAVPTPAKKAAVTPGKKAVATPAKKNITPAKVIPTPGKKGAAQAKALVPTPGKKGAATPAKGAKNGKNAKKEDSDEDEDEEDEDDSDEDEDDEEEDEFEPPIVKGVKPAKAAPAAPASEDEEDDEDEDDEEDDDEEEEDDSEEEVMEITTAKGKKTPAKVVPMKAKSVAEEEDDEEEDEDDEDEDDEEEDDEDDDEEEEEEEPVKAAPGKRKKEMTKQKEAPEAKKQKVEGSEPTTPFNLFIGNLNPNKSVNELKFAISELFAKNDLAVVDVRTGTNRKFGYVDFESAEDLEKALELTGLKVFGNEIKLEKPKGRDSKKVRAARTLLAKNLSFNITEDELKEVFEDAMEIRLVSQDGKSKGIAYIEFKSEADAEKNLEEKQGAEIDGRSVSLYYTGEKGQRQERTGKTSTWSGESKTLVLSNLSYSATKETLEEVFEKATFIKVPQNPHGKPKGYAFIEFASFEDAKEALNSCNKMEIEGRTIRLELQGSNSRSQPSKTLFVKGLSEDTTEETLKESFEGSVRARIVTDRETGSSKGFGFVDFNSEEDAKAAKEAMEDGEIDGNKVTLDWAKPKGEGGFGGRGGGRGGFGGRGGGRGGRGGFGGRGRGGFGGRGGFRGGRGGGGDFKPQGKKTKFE

IgG1 isotype control antibody gave a Kd [1] of 33.3 µM and a Kd (human nucleolin (human)) of 1.3 µM.
